From article PMC9121088, “The novel P330L pathogenic variant of aromatic amino acid decarboxylase maps on the catalytic flexible loop underlying its crucial role” (Cellular and Molecular Life Sciences: CMLS, 2022)

Key:
[1] = molecular target: T1, aromatic amino acid decarboxylase (AADC), P330L variant (Homo sapiens, UniProt P20711, P330L); experiment: CD thermal denaturation at […] nm ([…] to […] °C) of cDopa-bound form; format: binding
T1 construct: gene DDC
T1 sequence (P20711 1-480 P330L): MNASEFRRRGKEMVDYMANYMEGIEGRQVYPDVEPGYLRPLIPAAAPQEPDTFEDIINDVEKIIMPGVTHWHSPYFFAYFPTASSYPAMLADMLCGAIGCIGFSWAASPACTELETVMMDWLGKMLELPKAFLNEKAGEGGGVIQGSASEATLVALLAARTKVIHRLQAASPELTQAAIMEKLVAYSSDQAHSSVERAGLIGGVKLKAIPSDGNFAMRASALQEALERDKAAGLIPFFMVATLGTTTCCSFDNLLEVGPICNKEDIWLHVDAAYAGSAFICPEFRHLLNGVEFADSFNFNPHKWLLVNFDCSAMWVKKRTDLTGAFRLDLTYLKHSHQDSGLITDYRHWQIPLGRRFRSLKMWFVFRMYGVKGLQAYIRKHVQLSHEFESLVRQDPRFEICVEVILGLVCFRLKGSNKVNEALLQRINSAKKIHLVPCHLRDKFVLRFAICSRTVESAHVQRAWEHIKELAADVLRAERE

[2] = molecular target: T2, aromatic amino acid decarboxylase (AADC), wild-type (Homo sapiens, UniProt P20711); experiment: CD thermal denaturation at […] nm ([…] to […] °C); DLS of cDopa-bound form; format: binding
T2 construct: gene DDC
T2 sequence (P20711 1-480): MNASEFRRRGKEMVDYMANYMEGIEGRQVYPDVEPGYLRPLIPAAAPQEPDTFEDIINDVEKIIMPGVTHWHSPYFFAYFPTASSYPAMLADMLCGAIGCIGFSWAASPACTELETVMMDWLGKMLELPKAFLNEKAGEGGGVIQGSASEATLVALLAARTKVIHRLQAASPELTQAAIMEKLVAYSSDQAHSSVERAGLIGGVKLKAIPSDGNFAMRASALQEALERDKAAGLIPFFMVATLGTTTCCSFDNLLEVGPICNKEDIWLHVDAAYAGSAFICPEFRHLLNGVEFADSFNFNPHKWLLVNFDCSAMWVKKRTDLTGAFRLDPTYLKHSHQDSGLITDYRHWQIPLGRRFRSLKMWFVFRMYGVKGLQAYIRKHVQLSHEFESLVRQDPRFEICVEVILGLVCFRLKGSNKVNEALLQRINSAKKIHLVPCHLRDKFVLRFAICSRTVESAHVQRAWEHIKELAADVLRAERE

[3] = molecular target: T2, aromatic amino acid decarboxylase (AADC), wild-type; experiment: intrinsic fluorescence quenching titration of apoenzyme (KD(PLP)); format: binding
[4] = molecular target: T1, aromatic amino acid decarboxylase (AADC), P330L variant; experiment: as above; format: binding
purified protein [5] = substrate: N[C@@H](Cc1c[nH]c2ccc(O)cc12)C(=O)O; experiment: purified protein; format: biochemical, Homo sapiens; conditions: pH 7.4; 25.0 °C
purified protein [6] = substrate: N[C@@H](Cc1ccc(O)c(O)c1)C(=O)O; experiment: purified protein; conditions: PLP active site; external aldimine with PLP; pH 7.4; 25.0 °C

C[C@@](Cc1ccc(O)c(O)c1)(NN)C(=O)O [cDopa, carbiDopa]
P330L (°C) [1]: 69.9 ± 0.3 °C | WT (°C) [2]: 68.9 ± 0.4 °C

Cc1ncc(COP(=O)(O)O)c(C=O)c1O [PLP, pyridoxal 5'-phosphate]
Kd [3]: 101 ± 10 nM | Kd [4]: 123 ± 19 nM

B1: aromatic amino acid decarboxylase (AADC), wild-type (Homo sapiens) (protein)
chain: MNASEFRRRGKEMVDYMANYMEGIEGRQVYPDVEPGYLRPLIPAAAPQEPDTFEDIINDVEKIIMPGVTHWHSPYFFAYFPTASSYPAMLADMLCGAIGCIGFSWAASPACTELETVMMDWLGKMLELPKAFLNEKAGEGGGVIQGSASEATLVALLAARTKVIHRLQAASPELTQAAIMEKLVAYSSDQAHSSVERAGLIGGVKLKAIPSDGNFAMRASALQEALERDKAAGLIPFFMVATLGTTTCCSFDNLLEVGPICNKEDIWLHVDAAYAGSAFICPEFRHLLNGVEFADSFNFNPHKWLLVNFDCSAMWVKKRTDLTGAFRLDPTYLKHSHQDSGLITDYRHWQIPLGRRFRSLKMWFVFRMYGVKGLQAYIRKHVQLSHEFESLVRQDPRFEICVEVILGLVCFRLKGSNKVNEALLQRINSAKKIHLVPCHLRDKFVLRFAICSRTVESAHVQRAWEHIKELAADVLRAERE
Km (purified protein [5]): 9 ± 1 µM | kcat (purified protein [5]): 0.56 ± 0.02 s⁻¹ | kcat/Km (purified protein [5]): 62000 ± 7000 M⁻¹ s⁻¹ | Km (purified protein [6]): 16 ± 1 µM | kcat (purified protein [6]): 5.5 s⁻¹ | kcat/Km (purified protein [6]): 344000 M⁻¹ s⁻¹

B2: aromatic amino acid decarboxylase (AADC), P330L variant (Homo sapiens; P330L) (protein)
chain: MNASEFRRRGKEMVDYMANYMEGIEGRQVYPDVEPGYLRPLIPAAAPQEPDTFEDIINDVEKIIMPGVTHWHSPYFFAYFPTASSYPAMLADMLCGAIGCIGFSWAASPACTELETVMMDWLGKMLELPKAFLNEKAGEGGGVIQGSASEATLVALLAARTKVIHRLQAASPELTQAAIMEKLVAYSSDQAHSSVERAGLIGGVKLKAIPSDGNFAMRASALQEALERDKAAGLIPFFMVATLGTTTCCSFDNLLEVGPICNKEDIWLHVDAAYAGSAFICPEFRHLLNGVEFADSFNFNPHKWLLVNFDCSAMWVKKRTDLTGAFRLDLTYLKHSHQDSGLITDYRHWQIPLGRRFRSLKMWFVFRMYGVKGLQAYIRKHVQLSHEFESLVRQDPRFEICVEVILGLVCFRLKGSNKVNEALLQRINSAKKIHLVPCHLRDKFVLRFAICSRTVESAHVQRAWEHIKELAADVLRAERE
Km (purified protein [5]): 29 ± 3 µM | kcat (purified protein [5]): 0.0092 ± 0.0003 s⁻¹ | kcat/Km (purified protein [5]): 320 ± 30 M⁻¹ s⁻¹ | Km (purified protein [6]): 57 ± 2 µM | kcat (purified protein [6]): 0.0291 s⁻¹ | kcat/Km (purified protein [6]): 510 M⁻¹ s⁻¹
